Measured values from article PMC11199487, “Hub stability in the calcium calmodulin-dependent protein kinase II” (Communications Biology, 2024).
Values joined by “and” are separate entries in the source; they are usually repeats but may differ in a detail not shown here. Equal values may be shown once.

B1: CaMKIIα hub (6His-V15-mCaMKIIα hub construct: Venus tag, 15-amino-acid linker, α association domain) (domain or fragment)
chain: VRKQEIIKVTEQLIEAISNGDFESYTKMCDPGMTAFEPEALGNLVEGLDFHRFYFENLWSRNSKPVHTTILNPHIHLMGDESACIAYIRITQYLDAGGIPRTAQSEETRVWHRRDGKWQIVHFHRSGAPSVLPH
notes: CaMKII alpha association domain (AD); made from the holoenzyme construct by removal of the kinase domain; The plasmid is named mCaMKIIα, but the introduction speaks of rat α hubs; also called isolated α hub; CaMKIIα AD hub; source: E. coli BL21/Rosetta, co-transformed with a protein phosphatase plasmid, purified (nickel Hi-Trap); not shown: Venus, N-terminal, kept
B2: CaMKIIβ hub (6His-V15-rCaMKIIβ hub construct) (domain or fragment, rat)
chain: ARKQEIIKTTEQLIEAVNNGDFEAYAKICDPGLTSFEPEALGNLVEGMDFHRFYFENLLAKNSKPIHTTILNPHVHVIGEDAACIAYIRLTQYIDGQGRPRTSQSEETRVWHRPDGKWQNVHFHCSGAPVAPLQ
notes: rat CaMKII beta association domain (AD); made from the holoenzyme construct by removal of the kinase domain; also called isolated β hub; native β; source: E. coli BL21/Rosetta, co-transformed with a protein phosphatase plasmid, purified (nickel Hi-Trap); not shown: Venus, N-terminal, kept
B3: CaMKIIβ hub F458A (domain or fragment, rat)
chain: ARKQEIIKTTEQLIEAVNNGDFEAYAKICDPGLTSFEPEALGNLVEGMDAHRFYFENLLAKNSKPIHTTILNPHVHVIGEDAACIAYIRLTQYIDGQGRPRTSQSEETRVWHRPDGKWQNVHFHCSGAPVAPLQ
notes: rat CaMKII beta association domain (AD) with F458A; as m2 with the substitution; The methods describe F458A mutagenesis only of 6His-V15-rCaMKIIβ (the holoenzyme construct); The results say that F458A disassembles isolated β hubs; also called βF458A (isolated hub); source: E. coli BL21/Rosetta, co-transformed with a protein phosphatase plasmid, purified (nickel Hi-Trap); not shown: Venus, …
B4: CaMKIIβ holoenzyme T287A/T306A/T307A (6His-V15-rCaMKIIβ triple mutant) (enzyme, rat, UniProt P08413 1-542, looked up)
chain: MATTVTCTRFTDEYQLYEDIGKGAFSVVRRCVKLCTGHEYAAKIINTKKLSARDHQKLEREARICRLLKHSNIVRLHDSISEEGFHYLVFDLVTGGELFEDIVAREYYSEADASHCIQQILEAVLHCHQMGVVHRDLKPENLLLASKCKGAAVKLADFGLAIEVQGDQQAWFGFAGTPGYLSPEVLRKEAYGKPVDIWACGVILYILLVGYPPFWDEDQHKLYQQIKAGAYDFPSPEWDTVTPEAKNLINQMLTINPAKRITAHEALKHPWVCQRSTVASMMHRQEAVECLKKFNARRKLKGAILAAMLATRNFSVGRQTTAPATMSTAASGTTMGLVEQAKSLLNKKADGVKPQTNSTKNSSAITSPKGSLPPAALEPQTTVIHNPVDGIKESSDSTNTTIEDEDAKARKQEIIKTTEQLIEAVNNGDFEAYAKICDPGLTSFEPEALGNLVEGMDFHRFYFENLLAKNSKPIHTTILNPHVHVIGEDAACIAYIRLTQYIDGQGRPRTSQSEETRVWHRPDGKWQNVHFHCSGAPVAPLQ
notes: rat CaMKII beta, open reading frame codon optimized for bacterial expression, with T287A, T306A and T307A; Only the association-domain hub is resolved in the cryo-EM maps; also called engineered β holoenzyme; source: E. coli BL21/Rosetta, co-transformed with a protein phosphatase plasmid, purified (nickel Hi-Trap); not shown: Venus, N-terminal, kept

Legend:
[1] = biological target: the molecule itself; assay: cryo-EM structure; isolated Venus-tagged hubs, 20 mg/mL, flash-frozen stocks thawed on ice, grids plunge-frozen at 4 °C and 100% humidity; self-assembly of the association domains
[2] = biological target: the molecule itself; assay: SEC; EnRich SEC 650 column, 50 mM Tris, 150 mM KCl, 0.2 mM TCEP, 2% glycerol, pH 8.0, room temperature, thawed stocks applied without dilution, 250 μL, 1 mL/min
[3] = biological target: the molecule itself; assay: cryo-EM structure; Venus-tagged β holoenzyme sample, 20 mg/mL, fresh rather than flash-frozen preparation, grids plunge-frozen at 4 °C and 100% humidity; only the hub resolved

| Protein | stoichiometry N [1] | further results |
| --- | --- | --- |
| B1 | 12 and 14 | – |
| B2 | 12 and 14 | – |
| B3 | – | stoichiometry N [2]: 2 |
| B4 | – | stoichiometry N [3]: 14 and 12 |
